Source: paper PMC9482650, “Quantitative fragmentomics allow affinity mapping of interactomes” (Nature Communications, 2022)

T1: ARHGEF11, O15085
T1 sequence (O15085 42-136, limits assumed, looked up): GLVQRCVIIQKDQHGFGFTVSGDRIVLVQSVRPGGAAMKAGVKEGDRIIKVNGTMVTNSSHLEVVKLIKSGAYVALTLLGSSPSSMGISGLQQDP

T2: GRIP1_5, Q9Y3R0
T2 sequence (Q9Y3R0 568-668, limits assumed, looked up): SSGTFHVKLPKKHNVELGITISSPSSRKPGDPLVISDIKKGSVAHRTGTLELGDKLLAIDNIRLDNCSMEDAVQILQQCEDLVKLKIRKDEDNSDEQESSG

T3: GRIP1_7, Q9Y3R0
T3 sequence (Q9Y3R0 999-1096, limits assumed, looked up): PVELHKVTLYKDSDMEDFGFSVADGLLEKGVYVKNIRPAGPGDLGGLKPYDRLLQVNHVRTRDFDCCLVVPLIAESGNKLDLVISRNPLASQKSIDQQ

T4: LIN7A, O14910
T4 sequence (O14910 103-200, limits assumed, looked up): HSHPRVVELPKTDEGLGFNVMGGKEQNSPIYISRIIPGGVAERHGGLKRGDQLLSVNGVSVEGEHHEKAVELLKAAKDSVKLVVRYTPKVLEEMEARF

T5: MPP6, Q9NZW5
T5 sequence (Q9NZW5 125-219, limits assumed, looked up): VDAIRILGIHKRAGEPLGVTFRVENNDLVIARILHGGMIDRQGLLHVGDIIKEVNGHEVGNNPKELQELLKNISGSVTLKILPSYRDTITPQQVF

T6: MPP7, Q5T2T1
T6 sequence (Q5T2T1 134-230, limits assumed, looked up): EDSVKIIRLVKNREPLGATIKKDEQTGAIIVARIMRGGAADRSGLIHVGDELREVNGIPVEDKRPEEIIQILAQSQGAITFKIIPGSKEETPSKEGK

T7: PCLO, Q9Y6V0
T7 sequence (Q9Y6V0 4491-4600, limits assumed, looked up): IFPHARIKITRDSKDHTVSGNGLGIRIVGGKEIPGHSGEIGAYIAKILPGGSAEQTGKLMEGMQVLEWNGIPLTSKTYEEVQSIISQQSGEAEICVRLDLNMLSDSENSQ

T8: PDZRN3_1, Q9UPQ7
T8 sequence (Q9UPQ7 244-349, limits assumed, looked up): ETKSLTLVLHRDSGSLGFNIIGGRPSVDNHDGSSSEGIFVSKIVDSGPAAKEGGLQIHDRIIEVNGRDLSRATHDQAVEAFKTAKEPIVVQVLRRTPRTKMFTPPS

T9: PTPN13_1, Q12923
T9 sequence (Q12923 1088-1188, limits assumed, looked up): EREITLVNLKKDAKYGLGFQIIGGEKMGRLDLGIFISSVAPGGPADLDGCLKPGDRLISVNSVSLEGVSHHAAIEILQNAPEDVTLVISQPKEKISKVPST

T10: SYNJ2BP, P57105
T10 sequence (P57105 8-110, limits assumed, looked up): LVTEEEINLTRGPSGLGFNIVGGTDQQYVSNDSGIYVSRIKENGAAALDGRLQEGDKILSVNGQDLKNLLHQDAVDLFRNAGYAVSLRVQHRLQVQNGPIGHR


These binders were tested against AHNAK1, Q09666 (assay: holdup assay). Settings: plain residues with an end cap or a label only (N-terminal biotin on a linker: ado-ado).
Set-up: key: below the threshold = too weak to quantify, mostly under pKd 3.1 to 4

Chain of AHNAK1, Q09666 (Q09666 4-100): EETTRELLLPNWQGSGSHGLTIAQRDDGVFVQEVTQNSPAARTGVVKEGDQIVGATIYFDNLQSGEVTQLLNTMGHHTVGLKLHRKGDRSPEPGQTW

pKd	Binder
below the threshold	VCMGDHWFDV [PRKN, O60260]

What follows are binders tested against T1, ARHGEF11, O15085 (assay: holdup assay). Settings: plain residues with an end cap or a label only (N-terminal biotin on a linker: ado-ado).
Set-up: key: below the threshold = too weak to quantify, mostly under pKd 3.1 to 4

pKd	Binder
4.18	VCMGDHWFDV [PRKN, O60260]

Each binder was assayed against DLG4_2, P78352 (assay: holdup assay). Settings: plain residues with an end cap or a label only (N-terminal biotin on a linker: ado-ado).
Set-up: key: below the threshold = too weak to quantify, mostly under pKd 3.1 to 4

Chain of DLG4_2, P78352 (P78352 155-259): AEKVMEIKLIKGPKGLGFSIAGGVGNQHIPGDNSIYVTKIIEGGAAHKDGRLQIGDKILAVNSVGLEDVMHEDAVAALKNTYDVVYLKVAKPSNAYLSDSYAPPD

pKd	Binder
below the threshold	VCMGDHWFDV [PRKN, O60260]

The binders below were run against FRMPD2_1, Q68DX3 (assay: holdup assay). Settings: plain residues with an end cap or a label only (N-terminal biotin on a linker: ado-ado).
Set-up: key: below the threshold = too weak to quantify, mostly under pKd 3.1 to 4

Chain of FRMPD2_1, Q68DX3 (Q68DX3 770-861): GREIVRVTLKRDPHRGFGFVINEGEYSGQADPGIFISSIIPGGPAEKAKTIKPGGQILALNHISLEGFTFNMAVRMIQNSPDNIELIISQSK

pKd	Binder
below the threshold	VCMGDHWFDV [PRKN, O60260]

Each binder was assayed against GIPC2, Q8TF65 (assay: holdup assay). Settings: plain residues with an end cap or a label only (N-terminal biotin on a linker: ado-ado).
Set-up: key: below the threshold = too weak to quantify, mostly under pKd 3.1 to 4

Chain of GIPC2, Q8TF65 (Q8TF65 112-203): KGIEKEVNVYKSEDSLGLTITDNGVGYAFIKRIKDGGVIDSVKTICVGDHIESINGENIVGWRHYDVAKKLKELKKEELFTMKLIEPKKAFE

pKd	Binder
3.83	VCMGDHWFDV [PRKN, O60260]

What follows are binders tested against GRASP, Q7Z6J2 (assay: holdup assay). Settings: plain residues with an end cap or a label only (N-terminal biotin on a linker: ado-ado).
Set-up: key: below the threshold = too weak to quantify, mostly under pKd 3.1 to 4

Chain of GRASP, Q7Z6J2 (Q7Z6J2 96-193): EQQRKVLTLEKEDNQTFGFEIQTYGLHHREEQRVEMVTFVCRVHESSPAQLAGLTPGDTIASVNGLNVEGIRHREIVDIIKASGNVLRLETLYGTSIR

pKd	Binder
3.53	VCMGDHWFDV [PRKN, O60260]

What follows are binders tested against GRID2IP_1, A4D2P6 (assay: holdup assay). Settings: plain residues with an end cap or a label only (N-terminal biotin on a linker: ado-ado).
Set-up: key: below the threshold = too weak to quantify, mostly under pKd 3.1 to 4

Chain of GRID2IP_1, A4D2P6 (A4D2P6 1-87): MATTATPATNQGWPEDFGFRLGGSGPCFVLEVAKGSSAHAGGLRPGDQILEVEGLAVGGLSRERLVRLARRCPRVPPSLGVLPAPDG

pKd	Binder
below the threshold	VCMGDHWFDV [PRKN, O60260]

Each binder was assayed against T2, GRIP1_5, Q9Y3R0 (assay: holdup assay). Settings: plain residues with an end cap or a label only (N-terminal biotin on a linker: ado-ado).
Set-up: key: below the threshold = too weak to quantify, mostly under pKd 3.1 to 4

pKd	Binder
below the threshold	VCMGDHWFDV [PRKN, O60260]

The binders below were run against T3, GRIP1_7, Q9Y3R0 (assay: holdup assay). Settings: plain residues with an end cap or a label only (N-terminal biotin on a linker: ado-ado).
Set-up: key: below the threshold = too weak to quantify, mostly under pKd 3.1 to 4

pKd	Binder
3.56	VCMGDHWFDV [PRKN, O60260]

The binders below were run against GRIP2_3, Q9C0E4 (assay: holdup assay). Settings: plain residues with an end cap or a label only (N-terminal biotin on a linker: ado-ado).
Set-up: key: below the threshold = too weak to quantify, mostly under pKd 3.1 to 4

Chain of GRIP2_3, Q9C0E4 (Q9C0E4 238-339): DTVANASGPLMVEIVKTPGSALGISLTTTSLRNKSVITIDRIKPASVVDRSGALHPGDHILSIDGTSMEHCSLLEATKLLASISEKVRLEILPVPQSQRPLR

pKd	Binder
below the threshold	VCMGDHWFDV [PRKN, O60260]

These binders were tested against GRIP2_6, Q9C0E4 (assay: holdup assay). Settings: plain residues with an end cap or a label only (N-terminal biotin on a linker: ado-ado).
Set-up: key: below the threshold = too weak to quantify, mostly under pKd 3.1 to 4

Chain of GRIP2_6, Q9C0E4 (Q9C0E4 648-740): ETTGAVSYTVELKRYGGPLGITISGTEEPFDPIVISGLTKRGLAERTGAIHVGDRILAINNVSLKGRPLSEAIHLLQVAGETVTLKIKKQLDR

pKd	Binder
3.79	VCMGDHWFDV [PRKN, O60260]

Each binder was assayed against HTRA1, Q92743 (assay: holdup assay). Settings: plain residues with an end cap or a label only (N-terminal biotin on a linker: ado-ado).
Set-up: key: below the threshold = too weak to quantify, mostly under pKd 3.1 to 4

Chain of HTRA1, Q92743 (Q92743 360-477): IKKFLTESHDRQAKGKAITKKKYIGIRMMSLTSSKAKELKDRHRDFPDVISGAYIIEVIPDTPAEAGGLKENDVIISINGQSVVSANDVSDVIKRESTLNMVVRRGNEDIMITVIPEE

pKd	Binder
4.96	VCMGDHWFDV [PRKN, O60260]

The binders below were run against Inadl_4, Q8NI35 (assay: holdup assay). Settings: plain residues with an end cap or a label only (N-terminal biotin on a linker: ado-ado).
Set-up: key: below the threshold = too weak to quantify, mostly under pKd 3.1 to 4

Chain of Inadl_4, Q8NI35 (Q8NI35 547-651): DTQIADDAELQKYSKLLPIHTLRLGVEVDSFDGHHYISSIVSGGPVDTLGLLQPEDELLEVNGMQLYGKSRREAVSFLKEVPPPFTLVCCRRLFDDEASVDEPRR

pKd	Binder
below the threshold	VCMGDHWFDV [PRKN, O60260]

What follows are binders tested against T4, LIN7A, O14910 (assay: holdup assay). Settings: plain residues with an end cap or a label only (N-terminal biotin on a linker: ado-ado).
Set-up: key: below the threshold = too weak to quantify, mostly under pKd 3.1 to 4

pKd	Binder
below the threshold	VCMGDHWFDV [PRKN, O60260]

These binders were tested against MAGI1_1, Q96QZ7 (assay: holdup assay). Settings: plain residues with an end cap or a label only (N-terminal biotin on a linker: ado-ado).
Set-up: key: below the threshold = too weak to quantify, mostly under pKd 3.1 to 4

Chain of MAGI1_1, Q96QZ7 (Q96QZ7 1-106): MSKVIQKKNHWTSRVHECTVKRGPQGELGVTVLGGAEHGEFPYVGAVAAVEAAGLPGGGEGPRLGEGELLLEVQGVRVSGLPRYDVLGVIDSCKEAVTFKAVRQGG

pKd	Binder
below the threshold	VCMGDHWFDV [PRKN, O60260]

Each binder was assayed against MAGI1_2, Q96QZ7 (assay: holdup assay). Settings: plain residues with an end cap or a label only (N-terminal biotin on a linker: ado-ado).
Set-up: key: below the threshold = too weak to quantify, mostly under pKd 3.1 to 4

Chain of MAGI1_2, Q96QZ7 (Q96QZ7 456-580): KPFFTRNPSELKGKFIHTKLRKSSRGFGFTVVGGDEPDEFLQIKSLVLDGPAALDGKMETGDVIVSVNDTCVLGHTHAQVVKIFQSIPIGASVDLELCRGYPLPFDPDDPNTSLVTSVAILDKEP

pKd	Binder
below the threshold	VCMGDHWFDV [PRKN, O60260]

These binders were tested against MAGI2_3, Q86UL8 (assay: holdup assay). Settings: plain residues with an end cap or a label only (N-terminal biotin on a linker: ado-ado).
Set-up: key: below the threshold = too weak to quantify, mostly under pKd 3.1 to 4

Chain of MAGI2_3, Q86UL8 (Q86UL8 600-682): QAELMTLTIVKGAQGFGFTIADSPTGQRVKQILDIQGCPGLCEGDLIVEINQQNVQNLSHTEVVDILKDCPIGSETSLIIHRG

pKd	Binder
below the threshold	VCMGDHWFDV [PRKN, O60260]

What follows are binders tested against MAGI2_5, Q86UL8 (assay: holdup assay). Settings: plain residues with an end cap or a label only (N-terminal biotin on a linker: ado-ado).
Set-up: key: below the threshold = too weak to quantify, mostly under pKd 3.1 to 4

Chain of MAGI2_5, Q86UL8 (Q86UL8 915-1017): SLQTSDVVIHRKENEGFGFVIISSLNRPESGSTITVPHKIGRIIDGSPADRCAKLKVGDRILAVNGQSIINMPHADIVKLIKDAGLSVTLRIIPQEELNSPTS

pKd	Binder
below the threshold	VCMGDHWFDV [PRKN, O60260]

What follows are binders tested against MAST2, Q6P0Q8 (assay: holdup assay). Settings: plain residues with an end cap or a label only (N-terminal biotin on a linker: ado-ado).
Set-up: key: below the threshold = too weak to quantify, mostly under pKd 3.1 to 4

Chain of MAST2, Q6P0Q8 (Q6P0Q8 1099-1202): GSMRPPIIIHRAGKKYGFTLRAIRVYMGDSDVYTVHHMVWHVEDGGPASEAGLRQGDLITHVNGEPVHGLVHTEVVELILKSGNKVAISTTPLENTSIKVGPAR

pKd	Binder
4.85	VCMGDHWFDV [PRKN, O60260]

What follows are binders tested against T5, MPP6, Q9NZW5 (assay: holdup assay). Settings: plain residues with an end cap or a label only (N-terminal biotin on a linker: ado-ado).
Set-up: key: below the threshold = too weak to quantify, mostly under pKd 3.1 to 4

pKd	Binder
4.01	VCMGDHWFDV [PRKN, O60260]

What follows are binders tested against T6, MPP7, Q5T2T1 (assay: holdup assay). Settings: plain residues with an end cap or a label only (N-terminal biotin on a linker: ado-ado).
Set-up: key: below the threshold = too weak to quantify, mostly under pKd 3.1 to 4

pKd	Binder
4.85	VCMGDHWFDV [PRKN, O60260]

The binders below were run against NHERF4_2, Q86UT5 (assay: holdup assay). Settings: plain residues with an end cap or a label only (N-terminal biotin on a linker: ado-ado).
Set-up: key: below the threshold = too weak to quantify, mostly under pKd 3.1 to 4

Chain of NHERF4_2, Q86UT5 (Q86UT5 220-308): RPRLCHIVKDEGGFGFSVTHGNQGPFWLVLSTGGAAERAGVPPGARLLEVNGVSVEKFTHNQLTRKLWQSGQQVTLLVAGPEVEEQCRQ

pKd	Binder
below the threshold	VCMGDHWFDV [PRKN, O60260]

The binders below were run against T7, PCLO, Q9Y6V0 (assay: holdup assay). Settings: plain residues with an end cap or a label only (N-terminal biotin on a linker: ado-ado).
Set-up: key: below the threshold = too weak to quantify, mostly under pKd 3.1 to 4

pKd	Binder
below the threshold	VCMGDHWFDV [PRKN, O60260]

These binders were tested against T8, PDZRN3_1, Q9UPQ7 (assay: holdup assay). Settings: plain residues with an end cap or a label only (N-terminal biotin on a linker: ado-ado).
Set-up: key: below the threshold = too weak to quantify, mostly under pKd 3.1 to 4

pKd	Binder
below the threshold	VCMGDHWFDV [PRKN, O60260]

These binders were tested against T9, PTPN13_1, Q12923 (assay: holdup assay). Settings: plain residues with an end cap or a label only (N-terminal biotin on a linker: ado-ado).
Set-up: key: below the threshold = too weak to quantify, mostly under pKd 3.1 to 4

pKd	Binder
below the threshold	VCMGDHWFDV [PRKN, O60260]

What follows are binders tested against SCRIB_2, Q14160 (assay: holdup assay). Settings: plain residues with an end cap or a label only (N-terminal biotin on a linker: ado-ado).
Set-up: key: below the threshold = too weak to quantify, mostly under pKd 3.1 to 4

Chain of SCRIB_2, Q14160 (Q14160 857-960): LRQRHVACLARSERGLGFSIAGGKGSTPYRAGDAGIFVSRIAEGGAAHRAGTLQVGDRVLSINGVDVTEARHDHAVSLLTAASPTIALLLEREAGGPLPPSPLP

pKd	Binder
below the threshold	VCMGDHWFDV [PRKN, O60260]

Each binder was assayed against T10, SYNJ2BP, P57105 (assay: holdup assay). Settings: plain residues with an end cap or a label only (N-terminal biotin on a linker: ado-ado).
Set-up: key: below the threshold = too weak to quantify, mostly under pKd 3.1 to 4

pKd	Binder
below the threshold	VCMGDHWFDV [PRKN, O60260]
